This note sets out measurements from patent publication US20110287023A1 (AstraZeneca / MedImmune, published 2011).

Assay [1] addresses T1, mouse RAGE/Fc fusion protein (mouse, UniProt Q62151 24-342, limits assumed).
T1 construct: not shown: Fc part, not described
The assay is described as follows: ELISA (right panel): RAGE-Fc immobilized, HMGB1 titrated in the presence of 0.03 µM CpG-A. (ELISA stands for enzyme-linked immunosorbent assay.)

Assay [2] has as its target T2, HMGB1 in human brain tissue of multiple sclerosis plaques (human, UniProt P09429 1-215).
T2 construct: whole, on cells; tissue staining; also called HMGB1 in MS plaques
T2 sequence (looked up): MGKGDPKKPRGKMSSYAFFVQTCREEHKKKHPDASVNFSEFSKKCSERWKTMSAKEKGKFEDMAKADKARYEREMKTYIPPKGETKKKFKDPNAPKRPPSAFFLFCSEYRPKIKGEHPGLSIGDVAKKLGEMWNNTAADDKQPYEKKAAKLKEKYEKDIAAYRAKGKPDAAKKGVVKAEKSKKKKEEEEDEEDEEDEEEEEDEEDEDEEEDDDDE
The assay is described as follows: staining of human brain tissue.

Assay [3] deals with T3, HMG1 B Box peptide amino acids 150-183.
T3 peptide: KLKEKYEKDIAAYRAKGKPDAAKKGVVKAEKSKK
The assay is described as follows: ELISA, HMG1 B Box peptide 150-183 coated at 10 ug/ml, antibody titrated, OD 450. The procedure:
(§1) The plate was then blocked with 4% milk powder dissolved in PBS at 37° C. for 1 hour. The blocking solution was removed and replaced with human anti-HMG1 antibodies at various concentrations (see FIGS. 5A-B). […] HRP activity was detected with Sureblue HRP substrate (KPL). Plates were read at 450 nm using a Kinetic Microplate Reader (Molecular Devices). […] After washing and blocking with 1% BSA in PBS, the biotinylated peptides were individually added into the avidin coated wells and incubated for 30 min at room temperature. The serial diluted antibody G4, S16 and S6 at the initial concentration at 10 μg/ml were then transferred into the wells followed by adding mouse anti human IgG-HRP conjugate (Pierce). Detection was accomplished by adding 50 μl of tetramethylbenzidine (TMB) substrate (KPL) and the absorbance was read at 450 nm.

The target of assay [4] is T4, recombinant HMG1 produced in E. coli as a calmodulin binding protein (CBP) fusion (human).
T4 construct: also called rHMG1; rHMGB1
Briefly: BIAcore 3000, mAb amine-coupled to CM5, HMG1 injected, steady-state model. On the procedure:
HMG1 Binding Affinity via BIAcore Analysis: All experiments were performed on a BIAcore 3000 instrument (BIAcore, Inc., Piscataway, N.J.). Briefly, each mAb was immobilized to a CM5 sensor chip using a standard amine coupling chemistry. Separately a reference (control) flow cell was also prepared. Two-fold, serial dilutions of HMG1 in instrument buffer were sequentially injected at a slow flow rate over the individual mAb and reference flow-cell surfaces. Following the binding and dissociation of HMG1, the mAbs surfaces were regenerated with a brief pulse of 1M NaCl-50 mM NaOH. At the end of each experiment, the binding curves were evaluated using a steady-state model available through the BIAevaluation software supplied by BIAcore, Inc. (Piscataway, N.J.).
(In general: SPR reads the build-up and loss of mass on a sensor chip optically.)

The target in assay [5] is T5, HMG1 B Box peptide amino acids 91-169.
T5 construct: also called HMG1 peptide 91-169
T5 peptide: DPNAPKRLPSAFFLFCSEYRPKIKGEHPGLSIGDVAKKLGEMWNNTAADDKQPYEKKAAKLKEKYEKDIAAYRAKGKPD
Briefly: ELISA, HMG1 B Box peptide 91-169 coated at 10 ug/ml, antibody titrated, OD 450. The procedure:
as §1

For assay [6], the target named is T4, recombinant HMG1 produced in E. coli as …. The assay is described as follows: cell-based or functional assay.
The target in assay [7] is T3, HMG1 B Box peptide amino acids 150-183. The assay is described as follows: ELISA, HMG1 B Box peptide 150-183 coated at 10 ug/ml, antibody titrated, anti-human IgG-HRP, OD 450. The procedure: as §1
Assay [8] has as its target T6, HMG1 purified from calf (bovine) thymus (bovine, UniProt P10103 2-215).
T6 construct: also called Calf thymus HMGB1; thymus HMG1
T6 sequence (looked up): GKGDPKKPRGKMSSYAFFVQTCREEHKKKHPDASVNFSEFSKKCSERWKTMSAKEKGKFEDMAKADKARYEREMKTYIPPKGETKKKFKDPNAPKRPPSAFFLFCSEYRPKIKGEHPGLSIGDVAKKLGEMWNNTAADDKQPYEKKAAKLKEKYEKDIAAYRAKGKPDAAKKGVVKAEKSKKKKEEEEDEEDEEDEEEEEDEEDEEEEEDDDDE
Briefly: direct ELISA, calf thymus HMGB1 coated at 5 ug/mL, antibody at 10 ug/mL, anti-human kappa/lambda-HRP, OD 490. The procedure:
(§2) Binding to HMG1 vs. HMG2: Ultra high-binding ELISA plates (ThermoLab systems, #3855) were coated with either 5 ug/mL of Calf thymus HMGB1 or HMBG2 diluted in 10 mM Phosphate buffered saline (PBS), pH 7.2 and incubate overnight at 4 degrees. The plates were washed twice with Ca and Mg free PBS and 100 microliters of anti-HMGB1 antibody diluted in 10 mM PBS, pH 7.2+1% bovine serum albumin (BSA) to a final concentration of 10 ug/mL was added to each well and the plates were incubated 1 hour at room temperature. The wells were washed three times with 100 μl of PBS, pH 7.2. HRP labeled goat-anti-human IgG Kappa-chain (KPL, #14-10-10) and goat-anti-human IgG Lambda-chain (KPL, #14-10-11) were diluted in 10 mM PBS+1% BSA 1:1000 and 100 μl were added to each well and incubated for 1 hour at room temperature. The wells were then washed three times with 100 μl of PBS, pH 7.2. OPD substrate (Pierce chemical company, #34006) was prepared following the manufacturers instructions and 100 μl of prepared substrate was added to each well and the plates incubated at room temperature in the dark for 20-30 minutes. The reaction was stopped with the addition of 100 μl of 2M H₂SO₄, and the plates read on a plate reader at a wavelength of 490 nm.

For assay [9], the target named is T5, HMG1 B Box peptide amino acids 91-169. Briefly: ELISA, HMG1 B Box peptide 91-169 coated at 10 ug/ml, antibody titrated, anti-human IgG-HRP, OD 450. On the procedure:
as §1

The target in assay [10] is T7, HMG2 coated on ELISA plates (Bos taurus (Bovine), UniProt P40673 2-209).
T7 construct: also called HMGB2; HMBG2
T7 sequence: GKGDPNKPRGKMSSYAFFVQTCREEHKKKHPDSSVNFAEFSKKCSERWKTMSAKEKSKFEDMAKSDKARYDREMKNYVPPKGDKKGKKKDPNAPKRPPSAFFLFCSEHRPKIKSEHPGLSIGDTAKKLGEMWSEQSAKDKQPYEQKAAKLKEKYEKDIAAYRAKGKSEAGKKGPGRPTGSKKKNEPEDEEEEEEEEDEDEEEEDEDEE
Briefly: direct ELISA, HMGB2 coated at 5 ug/mL, antibody at 10 ug/mL, anti-human kappa/lambda-HRP, OD 490. The procedure: as §2

The target of assay [11] is T7, HMG2 coated on ELISA plates. Briefly: direct ELISA, HMGB2 coated at 5 ug/mL, OD 490. On the procedure: as §2
The target in assay [12] is T8, recombinant rat HMGB-1 labelled with europium (rat, UniProt P63159 1-215, limits assumed, Eu label, molar ratio HMGB-1 to Eu 1:5).
T8 construct: also called Europium-labeled HMGB-1
T8 sequence (looked up): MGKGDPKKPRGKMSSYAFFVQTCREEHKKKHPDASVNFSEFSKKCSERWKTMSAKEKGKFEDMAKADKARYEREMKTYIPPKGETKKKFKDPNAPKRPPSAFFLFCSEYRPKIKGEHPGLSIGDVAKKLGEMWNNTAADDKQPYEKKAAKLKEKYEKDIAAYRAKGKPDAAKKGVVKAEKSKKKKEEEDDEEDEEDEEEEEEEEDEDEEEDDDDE
The assay is described as follows: inhibition of binding of 2 nM Eu-labelled recombinant rat HMGB-1 to THP-1 cells. On the procedure:
HMG1 binding to THP-1 Cells: Recombinant rat HMGB-1 was labeled using Eu-labelling Kit from PerkinElmer. Molar ratio of HMGB-1 to Eu is 1:5. THP-1 were cultured as the protocol from ATCC. Cells were harvested and suspended at concentration 1×10⁶/ml in assay buffer containing 1×DELFIA L*R binding buffer (PerkinElmer), 50% of DELFIA stabilizer (PerkinElmer) and 0.05% of sodium azide. 100 μl of cells (1×10⁵) was added into wells in 96 well cell culture plate. The plate was incubated with gentle shaking at 4° C. for one hour. 100 μl of assay buffer containing 2 nM of Europium-labeled HMGB-1 mixed with various concentrations (333, 166.5, 83.25, 41.6, 20.8, 10.4 and 5.2 nM) of human anti-HMGB1 antibodies E11 or G2 or soluble human RAGE-Fc, were added into each wells respectively. After one hour incubation with gentle shaking at 4° C., the cells were washed four times with 1×L*R wash buffer (PerkinElmer) by centrifuging at 1200 rpm×5 min. 200 μl of enhancement solution was added into each well to dissociate and enhance Eu fluorescence at 615 nm. The fluorescence was measured with Wallac Victor Fluorometer. Assay was performed in triplicate and human antibody R3-47 was used the negative isotype control.

T1 sequence (Q62151 24-342 limits assumed): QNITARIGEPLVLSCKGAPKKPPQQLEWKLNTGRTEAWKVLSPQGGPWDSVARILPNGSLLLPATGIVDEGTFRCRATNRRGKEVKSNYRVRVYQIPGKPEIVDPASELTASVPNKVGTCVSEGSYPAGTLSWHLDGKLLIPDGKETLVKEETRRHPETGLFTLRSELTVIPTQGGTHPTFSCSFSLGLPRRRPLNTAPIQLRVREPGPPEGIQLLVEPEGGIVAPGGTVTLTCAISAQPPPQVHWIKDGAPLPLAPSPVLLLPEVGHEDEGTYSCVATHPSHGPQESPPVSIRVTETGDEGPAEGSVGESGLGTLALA

B1: complex of thymus HMGB1 with CpG-A DNA (other, bovine, UniProt P10103 2-215, looked up)
chain: GKGDPKKPRGKMSSYAFFVQTCREEHKKKHPDASVNFSEFSKKCSERWKTMSAKEKGKFEDMAKADKARYEREMKTYIPPKGETKKKFKDPNAPKRPPSAFFLFCSEYRPKIKGEHPGLSIGDVAKKLGEMWNNTAADDKQPYEKKAAKLKEKYEKDIAAYRAKGKPDAAKKGVVKAEKSKKKKEEEEDEEDEEDEEEEEDEEDEEEEEDDDDE
notes: also called HMGB1/CpG complex; HMGB1/CpG A complex
The term EC50 (read off the curve) denotes the concentration giving half of the maximal effect. On to B1, for which the “EC50 (read off the curve)” value in assay [1] was around 100 nM.

B2: human anti-HMG1 antibody G16 (antibody, IgG1, V domains shown)
VH: EVQLLESGGGLVQPGGSLRLSCAASGFTFSWYKMTWVRQAPGKGLEWVSSISPSGGFTSYADSVKGRFTISRDNSKNTLYLQMNSLRAEDTAVYYCARDLDIRHAFDIWGQGTMVTVSS
VL: DIQMTQSPGTLSLSPGESGTLSCRASESVSSRHFAWYQQKPGQAPRLLIYGASSRPTGIPDRFSGSGSGTDFTLTLSRLEPEDFAVYFCQYYGSSPYTFGGGTKVEMK
notes: full length IgG1 made from a human Fab phage clone
One may read the Kd as the free concentration of one partner at which half of the binding sites on the other are occupied at equilibrium, for simple one-to-one binding. With B2, the binding result in assay [2] is recorded as “binds”; in assay [3], “no binding (tested: 10 ug/ml (log 1.0))”; in [5] it was “no binding (tested: 10 ug/ml (log 1.0))”. The dissociation constant Kd in assay [4] is 22 nM. Further, in [6], the “IC50 IL-6” value stood at 1.06 nM. Further, the “IC50 NO” value in [6] was determined as 22 µg/mL.

B3: human anti-HMG1 antibody S12 (antibody, IgG1, V domains shown)
VH: EVQLLESGGGLVQPGGSLRLSCAASGFTFSKYIMHWVRQAPGKGLEWVSGIVPSGGLTEYADSVKGRFTISRDNSKNTLYLQMNSLRAEDTATYYCAKEIFGQFDYWGQGTLVTVSS
VL: AQSALTQPPSVSAAPRQRVTISCSGSTSNIGNNAVTWYQYFPGKAPKLLIYSDNQRPSGVPDRFSGSKSGTSASLAITGLQAEDEADYYCQSYDRGLSVVFGGGTKLTVL
notes: as for B2
On to B3, for which the binding result in assay [7], in assay [8], in assay [9] and in assay [10] was “binds” each time. Further, the “IC50 IL-6” value in assay [6] stood at 1.67 nM.

B4: human anti-HMG1 antibody G2 (antibody, IgG1, V domains shown)
VH: EVQLLESGGGLVQPGGSLRLSCAASGFTFSWYKMQWVRQAPGKGLEWVSGISPSGGSTAYADSVKGRFTISRDNSKNTLYLQMNSLRAEDTAVYYCAKMGLFNTGNSYVDYWGQGTLVTVSS
VL: AQSELTQPPSVSEAPGQRVTISCSGSTSNIGNNAVIWYQQLPGKAPKLLIYYDDLLPSGVSDRFSGSKSGTSGSLAISGLQSEDEADYYCASWDDNLNGPLFGGGTKLTVL
notes: as for B2
In general, IC50 refers to the point on the concentration scale where inhibition reaches its midpoint. Consider B4, for which the binding result in assay [11] is given as “no binding (tested: 10 ug/mL (single concentration))”. In [3], the binding result was “no binding (tested: 10 ug/ml (log 1.0))”. Further, the IC50 in assay [12] is 73.3 nM. Moreover, in assay [4], the Kd is 101 nM. Moreover, in assay [8], the binding result was “binds”. The binding result in [5] is listed as “no binding (tested: 10 ug/ml (log 1.0))”. Besides, in assay [6], the “IC50 IL-1β” value was found to be 5.03 µg/mL, the “IC50 IL-6” value stood at 0.994 nM, the “IC50 IL-12” value amounted to 1.26 µg/mL and the “IC50 TNF-α” value came to 1.35 µg/mL.
